# Reference: the supplement of paper PMC9112550, “Optimization of the antimicrobial peptide Bac7 by deep mutational scanning” (BMC Biology, 2022)
# System: Escherichia coli TOP10
# Assay: shrunken log2 fold change of peptide-encoding DNA abundance (4.5 h post-induction vs induction); higher = less antimicrobial activity (less host growth inhibition)
# Details: time post-induction: 4.5 h; library: site-saturation at positions 5, 18, 19, 20
# 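Further: peptides expressed intracellularly from a pBAD plasmid library in pooled LB shake-flask culture, induced with 0.3% L-arabinose, DNA abundance read by NGS, three biological replicates, DESeq2 with apeglm shrinkage.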
row,Sequence,shrunken log2 fold change
1,RRIRTRPPRLPRPRPRPNYVPRP,-0.35
2,RRIRHRPPRLPRPRPRPNGPPRP,-0.0992
3,RRIRARPPRLPRPRPRPNMGPRP,0.137
4,RRIRRRPPRLPRPRPRPYCRPRP,-0.503
5,RRIRHRPPRLPRPRPRPMHHPRP,-0.154
6,RRIRGRPPRLPRPRPRPACRPRP,0.549
7,RRIRFRPPRLPRPRPRPPSFPRP,-0.259
8,RRIRIRPPRLPRPRPRPMGGPRP,0.38
9,RRIRARPPRLPRPRPRPAYYPRP,-0.166
10,RRIRERPPRLPRPRPRPYQWPRP,0.0039
11,RRIRTRPPRLPRPRPRPNCDPRP,1.31
12,RRIRSRPPRLPRPRPRPACEPRP,0.233
13,RRIRPRPPRLPRPRPRPCHHPRP,-0.536
14,RRIRKRPPRLPRPRPRPYYQPRP,-0.194
15,RRIRSRPPRLPRPRPRPAFTPRP,-0.0573
16,RRIRMRPPRLPRPRPRPDSTPRP,1.09
17,RRIRGRPPRLPRPRPRPTQFPRP,0.772
18,RRIRVRPPRLPRPRPRPDWPPRP,0.334
19,RRIRPRPPRLPRPRPRPPHAPRP,0.589
20,RRIRFRPPRLPRPRPRPIEEPRP,0.0565
21,RRIRVRPPRLPRPRPRPNGVPRP,-0.154
22,RRIRERPPRLPRPRPRPDLFPRP,0.462
23,RRIRCRPPRLPRPRPRPHNVPRP,-0.194
24,RRIRRRPPRLPRPRPRPWWYPRP,-0.303
25,RRIRHRPPRLPRPRPRPVYPPRP,-0.529

row,Sequence,shrunken log2 fold change
1,RRIRMRPPRLPRPRPRPFSFPRP,-0.0784
2,RRIRGRPPRLPRPRPRPGGGPRP,1.33
3,RRIRKRPPRLPRPRPRPTYYPRP,-0.442
4,RRIRCRPPRLPRPRPRPCEVPRP,-0.251
5,RRIRVRPPRLPRPRPRPYYPPRP,-0.414
6,RRIRIRPPRLPRPRPRPMFLPRP,-0.624
7,RRIRERPPRLPRPRPRPLDLPRP,-0.357
8,RRIRVRPPRLPRPRPRPKWFPRP,-0.0567
9,RRIRRRPPRLPRPRPRPWCNPRP,-0.543
10,RRIRDRPPRLPRPRPRPVEHPRP,0.115
11,RRIRLRPPRLPRPRPRPACCPRP,0.0218
12,RRIRPRPPRLPRPRPRPAAEPRP,0.595
13,RRIRHRPPRLPRPRPRPIAKPRP,0.05
14,RRIRWRPPRLPRPRPRPKFCPRP,-0.116
15,RRIRTRPPRLPRPRPRPTYRPRP,-0.0768
16,RRIRNRPPRLPRPRPRPDYHPRP,0.00923
17,RRIRIRPPRLPRPRPRPTVGPRP,0.152
18,RRIRRRPPRLPRPRPRPCLWPRP,0.407
19,RRIRYRPPRLPRPRPRPRCLPRP,-0.0564
20,RRIRGRPPRLPRPRPRPILQPRP,0.621
21,RRIRLRPPRLPRPRPRPSWSPRP,0.0192
22,RRIRNRPPRLPRPRPRPFKYPRP,-0.133
23,RRIRVRPPRLPRPRPRPKDEPRP,-0.205
24,RRIRQRPPRLPRPRPRPDLLPRP,0.126
25,RRIRDRPPRLPRPRPRPGFAPRP,0.992

row,Sequence,shrunken log2 fold change
1,RRIRCRPPRLPRPRPRPGEYPRP,0.0239
2,RRIRDRPPRLPRPRPRPEYFPRP,0.0472
3,RRIRIRPPRLPRPRPRPRPQPRP,0.321
4,RRIRKRPPRLPRPRPRPAAWPRP,0.443
5,RRIRYRPPRLPRPRPRPSRFPRP,-0.074
6,RRIRSRPPRLPRPRPRPMPKPRP,0.0763
7,RRIRYRPPRLPRPRPRPAWYPRP,-0.687
8,RRIRGRPPRLPRPRPRPQSLPRP,0.251
9,RRIRFRPPRLPRPRPRPVKYPRP,-0.147
10,RRIRCRPPRLPRPRPRPGCAPRP,0.593
11,RRIRARPPRLPRPRPRPDPAPRP,1.3
12,RRIRFRPPRLPRPRPRPQKCPRP,-0.332
13,RRIRTRPPRLPRPRPRPREHPRP,0.327
14,RRIRERPPRLPRPRPRPETTPRP,0.165
15,RRIRIRPPRLPRPRPRPMCNPRP,-0.0808
16,RRIRWRPPRLPRPRPRPKNRPRP,0.017
17,RRIRSRPPRLPRPRPRPGMDPRP,0.0734
18,RRIRHRPPRLPRPRPRPYDFPRP,-0.0434
19,RRIRRRPPRLPRPRPRPYEDPRP,-0.08
20,RRIRSRPPRLPRPRPRPQINPRP,-0.46
21,RRIRDRPPRLPRPRPRPFMQPRP,0.0183
22,RRIRFRPPRLPRPRPRPEPFPRP,0.108
23,RRIRFRPPRLPRPRPRPKMDPRP,-0.0752
24,RRIRERPPRLPRPRPRPHDHPRP,-0.224
25,RRIRVRPPRLPRPRPRPHFKPRP,-0.0898

row,Sequence,shrunken log2 fold change
1,RRIRIRPPRLPRPRPRPAPKPRP,0.187
2,RRIRPRPPRLPRPRPRPWEEPRP,0.148
3,RRIRDRPPRLPRPRPRPFIAPRP,-0.237
4,RRIRLRPPRLPRPRPRPKVFPRP,0.0303
5,RRIRNRPPRLPRPRPRPYYNPRP,-1.49
6,RRIRNRPPRLPRPRPRPRLWPRP,0.0283
7,RRIRGRPPRLPRPRPRPWKDPRP,0.000655
8,RRIRNRPPRLPRPRPRPWFYPRP,-0.154
9,RRIRWRPPRLPRPRPRPIMMPRP,-0.312
10,RRIRMRPPRLPRPRPRPAVFPRP,0.383
11,RRIRWRPPRLPRPRPRPNNEPRP,-0.0931
12,RRIRYRPPRLPRPRPRPSNPPRP,-0.512
13,RRIRKRPPRLPRPRPRPMHLPRP,-0.0647
14,RRIRQRPPRLPRPRPRPVRGPRP,1.97
15,RRIRMRPPRLPRPRPRPQYPPRP,-0.0385
16,RRIRDRPPRLPRPRPRPSEDPRP,0.00101
17,RRIRQRPPRLPRPRPRPGDKPRP,-0.187
18,RRIRVRPPRLPRPRPRPIDKPRP,-0.471
19,RRIRNRPPRLPRPRPRPEVEPRP,0.154
20,RRIRRRPPRLPRPRPRPSQRPRP,0.0863
21,RRIRKRPPRLPRPRPRPMIAPRP,0.509
22,RRIRVRPPRLPRPRPRPMCEPRP,0.0553
23,RRIRSRPPRLPRPRPRPRIPPRP,-0.179
24,RRIRDRPPRLPRPRPRPLKVPRP,-0.0261
25,RRIRTRPPRLPRPRPRPNPQPRP,0.125

row,Sequence,shrunken log2 fold change
1,RRIRYRPPRLPRPRPRPWDFPRP,-0.0206
2,RRIRKRPPRLPRPRPRPKHLPRP,-0.334
3,RRIRGRPPRLPRPRPRPSPEPRP,0.498
4,RRIRTRPPRLPRPRPRPTLRPRP,-0.023
5,RRIRCRPPRLPRPRPRPGLLPRP,0.0187
6,RRIRTRPPRLPRPRPRPEQWPRP,-0.0581
7,RRIRYRPPRLPRPRPRPGNYPRP,-0.0361
8,RRIRSRPPRLPRPRPRPPMMPRP,0.0697
9,RRIRQRPPRLPRPRPRPSRCPRP,-0.177
10,RRIRWRPPRLPRPRPRPHIEPRP,0.0376
11,RRIRMRPPRLPRPRPRPWLFPRP,0.457
12,RRIRSRPPRLPRPRPRPHSCPRP,-0.0203
13,RRIRGRPPRLPRPRPRPQMNPRP,0.355
14,RRIRNRPPRLPRPRPRPWHIPRP,-0.325
15,RRIRLRPPRLPRPRPRPHEHPRP,-0.109
16,RRIRYRPPRLPRPRPRPPWGPRP,-0.0336
17,RRIRYRPPRLPRPRPRPMNQPRP,-0.383
18,RRIRARPPRLPRPRPRPPAPPRP,1.19
19,RRIRIRPPRLPRPRPRPILWPRP,-0.238
20,RRIRWRPPRLPRPRPRPPHAPRP,1.04
21,RRIRRRPPRLPRPRPRPMIWPRP,0.0834
22,RRIRFRPPRLPRPRPRPNQLPRP,-1.2
23,RRIRERPPRLPRPRPRPINIPRP,-0.973
24,RRIRYRPPRLPRPRPRPNDRPRP,-0.0645
25,RRIRGRPPRLPRPRPRPIGVPRP,-0.0542

row,Sequence,shrunken log2 fold change
1,RRIRWRPPRLPRPRPRPLIRPRP,-0.117
2,RRIRFRPPRLPRPRPRPVFSPRP,-0.293
3,RRIRVRPPRLPRPRPRPQFWPRP,-0.178
4,RRIRKRPPRLPRPRPRPERQPRP,0.0351
5,RRIRKRPPRLPRPRPRPLWGPRP,0.115
6,RRIRMRPPRLPRPRPRPDEEPRP,2.97
7,RRIRHRPPRLPRPRPRPETKPRP,-0.0652
8,RRIRQRPPRLPRPRPRPWNIPRP,-0.0185
9,RRIRHRPPRLPRPRPRPDYPPRP,-0.111
10,RRIRNRPPRLPRPRPRPFLKPRP,-0.294
11,RRIRRRPPRLPRPRPRPSVLPRP,-0.0526
12,RRIRVRPPRLPRPRPRPALKPRP,0.253
13,RRIRYRPPRLPRPRPRPAHWPRP,0.0585
14,RRIRSRPPRLPRPRPRPSWAPRP,-0.0813
15,RRIRSRPPRLPRPRPRPPPFPRP,0.449
16,RRIRSRPPRLPRPRPRPREFPRP,0.322
17,RRIRGRPPRLPRPRPRPCNGPRP,-0.199
18,RRIRDRPPRLPRPRPRPMKNPRP,-0.0366
19,RRIRTRPPRLPRPRPRPIQCPRP,-0.521
20,RRIRDRPPRLPRPRPRPWPTPRP,0.104
21,RRIRYRPPRLPRPRPRPSCTPRP,-1.36
22,RRIRERPPRLPRPRPRPHLVPRP,-0.125
23,RRIRYRPPRLPRPRPRPLPMPRP,-0.624
24,RRIRQRPPRLPRPRPRPEVSPRP,0.116
25,RRIRPRPPRLPRPRPRPPLMPRP,0.199
